Laboratory results: patent publication US9649378B2, “Cancer methods” (priority 2010, dated 2017)
Entries after “also recorded” stand apart in the source; their conditions may differ.

Tests used:
[1] = system: receptor tyrosine kinase signaling in SKOV-3 and A2780 cells; assay: Western blot / IFM of RTKs and downstream signalling after exogenous OPCML; assay type: cell-based; details: for RTK levels and RTK signalling: 2 μM for 48 h, Western blot
Method: FIG. 9: Cellular uptake of recombinant OPCML. SKOV-3 cells were incubated with vehicle alone or vehicle including 2 μM OPCML for 24 h. Cells were then washed 3× with PBS and fixed with 4% PFA. Cells were then prepared for IFM using rabbit α-HER2 mAb and mouse α-OPCML mAb. Goat α-rabbit alexa-488 and α-mouse alexa-555 secondary antibodies were used. Slides were imaged using a Leica SP5 confocal microscope.
(A) Western Blot analysis of pHER, tHER2, tEGFR, pEGFR, tFGFR, pFGFR proteins from SKOV-3 cells untreated, treated with vehicle only or OPCML (2 μM) for 48 h. (B) Western blot analysis of pAKT, tAKT, pERK, tERK proteins from SKOV-3 cells untreated, treated with vehicle only or OPCML (2 μM) for 48 h. Protein loading was standardised by BCA-assay and β-tubulin was used as a loading control.
(A) Western Blot analysis of pHER, tHER2, tEGFR, pEGFR, tFGFR, pFGFR proteins from SKOV-3 and A2780 cells treated with vehicle only or OPCML (2 μM) for 48 h. (B) Western blot analysis of pAKT, tAKT, pERK, tERK, proteins from SKOV-3 and A2780 cells treated with vehicle only or OPCML (2 μM) for 48 h. Protein loading was standardised by BCA-assay and β-tubulin was used as a loading control.

[2] = system: normal ovarian surface epithelial cells (OSE-C2); assay: in vitro growth assay (MTT-based) with rOPCML; assay type: cell-based; details: OSE-C2, OPCML expressing
Method: (§1) (A) SKOV-3 cells were subjected to a 48 h in vitro growth assay with varying concentrations of OPCML administration. (B) A 96 h in vitro SKOV-3 growth assay with 2 μM rOPCML administered to growth media. Time points were collected every 24 h and normalised to control cells treated with vehicle only. Cell viability was quantified using MTT and measured at 570 nm. (C) Upper panel—OSE-C2 and SKOV-3 cells were subjected to a 48 h in vitro growth assay with varying OPCML concentrations (0.5, 1, 2, 5 and 10 μM); lower panel—normal ovarian surface epithelial cells (OSE-C2) and a panel of ovarian (SKOV-3, IGROV, OVISE, OVCAR-5, A2780, PEA1 and PEA2) and […] breast cancer cells were subjected to an in vitro growth assay with 10 μm OPCML. Time points were collected at 24 h and 48 h and cell growth was monitored to vehicle only controls. Cell viability was quantified in all experiments using an MTT-based assay and measured at 570 nm.
(B) a 96 h in vitro SKOV-3 growth assay with 2 μM rOPCML administered to growth media. Time points were collected every 24 h and normalised to control cells treated with vehicle only. (C) Normal ovarian surface epithelial cells (OSE-C2) and a panel of ovarian (SKOV-3, IGROV, OVISE, OVCAR-5, A2780, PEA1 and PEA2), […] breast cancer cells and non-adherant (H69, H501 small-cell) and adherent (A549 carcinoma, HCC95 non-SSLC squamous) lung cancer cells were subjected to an in vitro growth assay with 10 μM of rOPCML. Time points were collected at 24 and 48 h and cell growth was normalised to vehicle only controls. Cell viability was quantified in all experiments using an MU-based assay and measured at 570 nm. Caspase cleavage-based apoptosis assays using (D) A2780 and (E) SKOV-3 were undertaken with administration of rOPCML (2, 5 and 10 μM) over 24 h. Caspase cleavage was quantified using the GaspaseGlo kit and normalised to cell viability. […]

[3] = system: SKOV-3 and A2780 ovarian cancer cells; assay: Annexin V FACS and caspase-glo apoptosis assays with r-OPCML; assay type: cell-based
Method: (§2) (B) a 96 h in vitro SKOV-3 growth assay with 2 μM rOPCML administered to growth media. Time points were collected every 24 h and normalised to control cells treated with vehicle only. (C) Normal ovarian surface epithelial cells (OSE-C2) and a panel of ovarian (SKOV-3, IGROV, OVISE, OVCAR-5, A2780, PEA1 and PEA2), HER2-positive (MDA-231) and negative (BT-474) breast cancer cells and non-adherant (H69, H501 small-cell) and adherent (A549 carcinoma, HCC95 non-SSLC squamous) lung cancer cells were subjected to an in vitro growth assay with 10 μM of rOPCML. Time points were collected at 24 and 48 h and cell growth was normalised to vehicle only controls. Cell viability was quantified in all experiments using an MU-based assay and measured at 570 nm. Caspase cleavage-based apoptosis assays using (D) A2780 and (E) SKOV-3 were undertaken with administration of rOPCML (2, 5 and 10 μM) over 24 h. Caspase cleavage was quantified using the GaspaseGlo kit and normalised to cell viability.
Purified recombinant human OPCML domain 1-3 protein (r-OPCML) (FIG. 8) was produced from the bacterial expression vector (pHis-Trx) subcloned with domains 1-3 of OPCML, excluding the signal peptide and GPI anchor sequences (FIG. 8A).

[4] = system: ovarian cancer cell lines (SKOV-3, IGROV, OVISE, OVCAR-5, A2780, PEA1 and PEA2); assay: in vitro growth assay (MTT-based) with rOPCML, ovarian panel; assay type: cell-based; details: for growth of ovarian and breast cancer cell lines: 10 μM, 24 h and 48 h, versus vehicle only; for ovarian cancer cell lines growth-inhibited / killed, of lines tested: in vitro
Method: (§3) We have tested 0.5, 1, 2, 5 and 10 μM of recombinant […] human OPCML in vitro, and there is a linear dose response which has not yet peaked. […] The physician skilled in the art will be able to identify suitable doses based upon this information and their skill in the art.
as §1, §2

SKOV-3 cells = assay: in vitro growth assay (MTT-based) with rOPCML added to growth media; details: 0.5-10 μM for 48 h or 2 μM for 96 h
Method: as §1
(B) a 96 h in vitro SKOV-3 growth assay with 2 μM rOPCML administered to growth media. Time points were collected every 24 h and normalised to control cells treated with vehicle only. […] Cell viability was quantified in all experiments using an MU-based assay and measured at 570 nm. […] Caspase cleavage was quantified using the GaspaseGlo kit and normalised to cell viability. […]

[5] = system: A2780 cancer cells injected intraperitoneally; assay: intraperitoneal tumour growth assay, r-OPCML versus BSA; assay type: in vivo, nude mouse; details: A2780 model; for IP tumour growth / tumour weight: 1 ml (10 μM) IP twice weekly, 3 weeks; for IP tumour growth / tumour weight / ascites formation / volume / number of IP peritoneal deposits / peritoneal dissemination: versus BSA
Method: (§4) Comparison of r-OPCML and control protein (bovine serum albumen) treated A2780 and SKOV-3 cell lines. (A) Gross anatomical observation of the animals (B) Intraperitoneal tumour growth assay. Tumours were removed, weighed and photographed after 3 weeks of twice-weekly 1 mL intraperitoneal injection of 10 μM r-OPCML or BSA. Representative A2780 and SKOV-3 tumour xenografts from 4 animals are presented. A scale bar is shown. (C) mean tumour weight, (D) number of deposits and (E) volume of ascites removed per mouse from the intraperitoneal assay presented in B. Comparison is shown between tumours and ascites collected from BSA- (−) and r-OPCML-treated (+) mice. (F) Western blot analysis of recovered tumours from control (BSA) and r-OPCML treated animals recapitulates in-vitro findings.
(§5) In view of these in-vitro findings, we proceeded to determine whether r-OPCML protein had potential and relevance as an in-vivo tumour suppressor therapy. Mice with either SKOV-3 or A2780 cancer cells injected intraperitoneally (IP), after tumour establishment, received twice-weekly IP injections of either 1 ml (10 μM) bovine serum albumin (BSA) or 1 ml (10 μM) r-OPCML.

[6] = system: SKOV-3 cancer cells injected intraperitoneally; assay: as above; assay type: in vivo, nude mouse; details: for IP tumour growth / tumour weight: 1 ml (10 μM) IP twice weekly, 3 weeks
Method: as §4, §5

[7] = system: HER2-positive (MDA-231) and negative (BT-474) breast cancer cells; assay: in vitro growth assay (MTT-based) with rOPCML, breast lines; assay type: cell-based; details: for breast cancer cell lines growth-inhibited / killed, of lines tested: both HER2 positive and HER2 negative
Method: as §3, §1
(B) a 96 h in vitro SKOV-3 growth assay with 2 μM rOPCML administered to growth media. Time points were collected every 24 h and normalised to control cells treated with vehicle only. (C) Normal ovarian surface epithelial cells (OSE-C2) and a panel of ovarian (SKOV-3, IGROV, OVISE, OVCAR-5, A2780, PEA1 and PEA2), […] breast cancer cells and non-adherant (H69, H501 small-cell) and adherent (A549 carcinoma, HCC95 non-SSLC squamous) lung cancer cells were subjected to an in vitro growth assay with 10 μM of rOPCML. Time points were collected at 24 and 48 h and cell growth was normalised to vehicle only controls. Cell viability was quantified in all experiments using an MU-based assay and measured at 570 nm. […] Caspase cleavage was quantified using the GaspaseGlo kit and normalised to cell viability.

[8] = system: lung cancer cells (H69, H501, A549, HCC95); assay: in vitro growth assay (MTT-based) with rOPCML, lung lines; assay type: cell-based; details: 10 μM rOPCML
Method: as §2

[9] = 0.5, 1, 2, 5 and 10 μM tested in vitro, ovarian and breast cancer cell lines
[10] = listed as recombinant full length human OPCML
[11] = SKOV-3 model, versus BSA, listed as rOPCML

B1: r-OPCML: Purified recombinant human OPCML domain 1-3 protein from E. coli, excluding signal peptide and GPI anchor sequences; SEQ ID No 5 (protein, listed as Homo sapiens)
chain: PKAMDNVTVRQGESATLRCTIDDRVTRVAWLNRSTILYAGNDKWSIDPRVIILVNTPTQYSIMIQNVDVYDEGPYTCSVQTDNHPKTSRVHLIVQVPPQIMNISSDITVNEGSSVTLLCLAIGRPEPTVTWRHLSVKEGQGFVSEDEYLEISDIKRDQSGEYECSALNDVAAPDVRKVKITVNYPPYISKAKNTGVSVGQKGILSCEASAVPMAEFQWFKEETRLATGLDGMRIENKGRMSTLTFFNVSEKDYGNYTCVATNKLGNTNASIT
RTK levels and RTK signalling [1]: potently downregulated | RTK levels and RTK signalling ([1]; listed as Exogenous OPCML): inhibits RTK signaling | RTK levels and RTK signalling ([1]; listed as exogenous OPCML): inhibits receptor tyrosine kinase signaling | RTK levels and RTK signalling ([1]; listed as rOPCML): abrogates total RTK levels and inhibits RTK signalling | ERK protein levels ([1]; SKOV-3, 2 μM OPCML 48 h): downregulates | HER2 protein level ([1]; SKOV-3, 2 μM OPCML, listed as exogenous OPCML): downregulation of HER2; also recorded: downregulates | pERK and pAKT ([1]; SKOV-3 and A2780, immunoblotting): abrogating pERK and pAKT | AKT S473 phosphorylation ([1]; administration to cancer cells in vitro): inhibits phospho S473 AKT; also recorded: inhibits AKT s473 phosphorylation | effect on normal ovarian surface epithelial cells [2]: without affecting normal ovarian surface epithelial cells | effect on normal ovarian surface epithelial cells ([2]; listed as OPCML): sparing normal ovarian surface epithelial cells | effect on normal ovarian surface epithelial cells ([2]; listed as rOPCML): no effect | apoptosis in caspase-glo assay ([3]; 2, 5 and 10 μM over 24 h): induces apoptosis in both these cell lines in a dose dependent fashion | early apoptosis, time post exposure ([3]; Annexin V FACS apoptosis assay, depending on cell line): 2 to 6 h | growth of ovarian and breast cancer cell lines ([4]; listed as Exogenous OPCML): inhibits growth | growth of ovarian and breast cancer cell lines ([4]; listed as OPCML): inhibits growth | growth of ovarian and breast cancer cell lines ([4]; listed as rOPCML): specifically inhibits | concentration from which inhibition of cell growth is seen [4, 9]: ≥ 2 μm | concentration giving frank cell death [4, 9]: 5 to 10 µM | response of PEA2 cell line ([4]; PEA2): resistance | ovarian cancer cell lines growth-inhibited / killed, of lines tested [4]: 6 of 7 | ovarian cancer cell lines growth-inhibited / killed, of lines tested ([4]; listed as rOPCML): 6/7 | ovarian cancer cell lines growth-inhibited / killed, of lines tested [4, 10]: 6/7 | SKOV-3 cell growth in vitro (SKOV-3 cells): specific, dose-dependent inhibition of cell growth | SKOV-3 cell growth in vitro (SKOV-3 cells; listed as exogenous OPCML): inhibits SKOV-3 cell growth | IP tumour growth / tumour weight [5]: significantly and profoundly suppressed | IP tumour growth / tumour weight ([5]; listed as Recombinant OPCML): reduces tumour growth | IP tumour growth / tumour weight ([5]; listed as rOPCML): profound inhibition | condition of animals at 3 weeks ([5]; BSA controls deteriorating): remained well | ascites formation / volume [5]: significantly and profoundly suppressed | number of IP peritoneal deposits / peritoneal dissemination [5]: profoundly inhibited | ascites formation / volume ([5]; listed as rOPCML): profound inhibition | number of IP peritoneal deposits / peritoneal dissemination ([5]; listed as rOPCML): profound inhibition | RTKs in recovered IP tumour (Western blotting) ([6]; SKOV3 IP tumour, r-OPCML versus BSA treated): same spectrum of RTKs inhibited | peritoneal dissemination ([6]; SKOV3 model, versus BSA): profound inhibition | IP tumour growth / tumour weight ([6]; SKOV-3 model, versus BSA): significantly and profoundly suppressed | IP tumour growth / tumour weight ([6]; SKOV-3 model, versus BSA, listed as Recombinant OPCML): reduces tumour growth | IP tumour growth / tumour weight [6, 11]: profound inhibition | condition of animals at 3 weeks ([6]; SKOV-3 model, BSA controls deteriorating): remained well | ascites formation / volume ([6]; SKOV-3 model, versus BSA): significantly and profoundly suppressed | ascites formation / volume [6, 11]: profound inhibition | growth of HER2+ and HER2− breast cancer cell line ([7]; 10 μM, 24 h and 48 h): profoundly inhibited | breast cancer cell lines growth-inhibited / killed, of lines tested [7]: 2 of 2 | breast cancer cell lines growth-inhibited / killed, of lines tested [7, 10]: 2/2 | lung cancer cell lines with profoundly inhibited cell growth, of lines tested [8]: 5 of 5
